# B1: YOR081C_2 (protein, UniProt Q12043 1-749, looked up)
# Triacylglycerol lipase 5: MSNTLPVTEFLLSKYYELSNTPATDSSSLFKWLYHKTLSRKQLLISDLSSQKKHAISYDQWNDIASRLDDLTGLSEWKTIDESSLYNYKLLQDLTIRMRHLRTTHDYHRLLYLIRTKWVRNLGNMNNVNLYRHSHTGTKQIIHDYLEESQAVLTALIHQSNMNDHYLLGILQQTRRNIGRTALVLSGGSTFGLFHIGVLAALFESDLMPKVISGSSAGAIVASIFCVHTTQEIPSLLTNVLNMEFNIFNDDNSKSPNENLLIKISRFCQNGTWFNNQPLINTMLSFLGNLTFREAYNKTGKILNITVSPASIYEQPKLLNNLTAPNVLIWSAVCASCSLPGVFPSTPLFEKDPHTGKIKEWGATNLHLSNMKFMDGSVDNDMPISRLSEMFNVDHIIACQVNIHVFPLLKFSNTCVGGEIEKEITARFRNQVTKIFKFFSDETIHFLDILKELEFHPYLMTKLKHLFLQQYSGNVTILPDLSMVGQFHEVLKNPSQLFLLHQTTLGARATWPKISMIQNNCGQEFALDKAITFLKEKIIISSSIKNPLQFYQPRFSEQIKSLSIMDADLPGVDLEESSSNSLSIIKSPNKTAAPGRFPLQPLPSPSSTFNKRKMDMLSPSPSPSTSPQRSKSSFTQQGTRQKANSLSFAIGASSLRLKKSPLKVPSRPQFKKRSSYYNQNMSAEMRKNRKKSGTISSYDVQTNSEDFPIPAIENGSFDNTLFNPSRFPMDAMSAATNDNFMNNSDIFQN
# B2: YGR037C_2 (protein, UniProt P31787 1-87, looked up)
# Acyl-CoA-binding protein: MVSQLFEEKAKAVNELPTKPSTDELLELYALYKQATVGDNDKEKPGIFNMKDRYKWEAWENLKGKSQEDAEKEYIALVDQLIAKYSS
# B3: ABP1 WT (protein, UniProt P15891 2-592, looked up)
# Actin-binding protein: ALEPIDYTTHSREIDAEYLKIVRGSDPDTTWLIISPNAKKEYEPESTGSSFHDFLQLFDETKVQYGLARVSPPGSDVEKIIIIGWCPDSAPLKTRASFAANFAAVANNLFKGYHVQVTARDEDDLDENELLMKISNAAGARYSIQTSSKQQGKASTPPVKKSFTPSKSPAPVSKKEPVKTPSPAPAAKISSRVNDNNDDDDWNEPELKERDFDQAPLKPNQSSYKPIGKIDLQKVIAEEKAKEDPRLVQKPTAAGSKIDPSSDIANLKNESKLKRDSEFNSFLGTTKPPSMTESSLKNDDDKVIKGFRNEKSPAQLWAERKAKQNSGNAETKAEAPKPEVPEDEPEGEPDVKDLKSKFEGLAASEKEEEEMENKFAPPPKKSEPTIISPKPFSKPQEPVKAEEAEQPKTDYKKIGNPLPGMHIEADNEEEPEENDDDWDDDEDEAAQPPLPSRNVASGAPVQKEEPEQEEIAPSLPSRNSIPAPKQEEAPEQAPEEEIEEEAEEAAPQLPSRSSAAPPPPPRRATPEKKPKENPWATAEYDYDAAEDNELTFVENDKIINIEFVDDDWWLGELEKDGSKGLFPSNYVSLGN
# B4: YFR004W_2 (protein, UniProt P43588 1-306, looked up)
# Ubiquitin carboxyl-terminal …: MERLQRLMMNSKVGSADTGRDDTKETVYISSIALLKMLKHGRAGVPMEVMGLMLGEFVDDYTVNVVDVFAMPQSGTGVSVEAVDDVFQAKMMDMLKQTGRDQMVVGWYHSHPGFGCWLSSVDVNTQKSFEQLNSRAVAVVVDPIQSVKGKVVIDAFRLIDTGALINNLEPRQTTSNTGLLNKANIQALIHGLNRHYYSLNIDYHKTAKETKMLMNLHKEQWQSGLKMYDYEEKEESNLAATKSMVKIAEQYSKRIEEEKELTEEELKTRYVGRQDPKKHLSETADETLENNIVSVLTAGVNSVAIK
# B5: YOR039W_2 (protein, UniProt P38930 1-258, looked up)
# Casein kinase II subunit beta': MGSRSENVGTVTREGSRVEQDDVLMDDDSDSSEYVDMWIDLFLGRKGHEYFCDVDPEYITDRFNLMNLQKTVSKFSYVVQYIVDDLDDSILENMTHARLEQLESDSRKLYGLIHARYIITIKGLQKMYAKYKEADFGRCPRVYCNLQQLLPVGLHDIPGIDCVKLYCPSCEDLYIPKSSRHSSIDGAYFGTSFPGMFLQAFPDMVPKHPTKRYVPKIFGFELHKQAQLTRWQELQRLKLVEKLESKDVDLTKSGGFKT
# B6: YPL246C_2 (protein, UniProt Q12270 1-262, looked up)
# Rhomboid-type serine protease …: MNWKSYVFPGGHPPAALTTGLVVFLTAIYLLSFIFALREDLSLAPESLFKLQMSRLSLYPLIHLSLPHLLFNVLAIWAPLNLFEETHGTVYTGVFLNLSALFAGILYCLLGKLLYPEALVAGASGWCFTLFAYYSFKESQIRPRTRIFRTDYSIPTLYTPLVLLVAIAVVIPGSSFWGHFFGLCVGYAIGYKESWFNKITPPGWIITKIEKSLDGLIRLIPWGIKYYRDEDIDRTKDYEPLMSTETPLPLHNDNSGTVLGTA
# Key:
# [1] = system: PPIs identified as affected by the SH3 domain deletions; assay: Liquid DHFR-PCA low-throughput validation of PPIs affected by SH3 deletion (Fig. S1D-E); assay type: cell-based, Saccharomyces cerevisiae; details: label = prey, liquid DHFR-PCA, prey _1 = lost, _2 = gained in screen
# Procedure: Liquid DHFR-PCA low-throughput experiments were performed to validate the PPIs identified as affected by the SH3 domain deletions in the high-throughput solid DHFR-PCA screen (256 PPIs weaker or lost and 116 PPIs stronger or gained following domain deletions). Mating and the diploid selection were performed as described for the large-scale experiment, with the exception that the plates were in 384 formats. Following the second diploid selection, diploid cells were inoculated in a 96 v-shaped well plate using a robotically manipulated 96 pin tool in a synthetic complete medium with MSG at pH 6.0 with NAT and HPH. After 48 h of growth, optical density (OD) was read using a TECAN Infinite F200 Pro, and dilutions to 1 OD in sterile nanopure water were prepared. Cells were then diluted to 0.1 OD by combining 25 µl of cell suspension at OD = 1 and 225 µl of PCA selection media without agar in a 96-wells plate. Plates were incubated at 30 °C in a TECAN Infinite M Nano and OD was monitored each 15 min for 72 h.
# [2] = system: growth of yeast strains under 51 stress conditions; assay: Growth assays in 51 stress conditions (Fig. 1E-F, S2D, S5B); assay type: cell-based, Saccharomyces cerevisiae; parameters: key to Growth (Fig. S2D) / growth of ABP1 SH3-swapped strains in stress condition: log2 colony size, average of median per strain (growth score); details: ABP1 SH3-swapped strains
# Procedure: All WT, SH3-deleted, KO (except for CDC25 which is the only essential SH3-containing gene in yeast), ABP1 SH3-swapped, and SLA1 SH3-shuffled strains were grown on omnitrays in 1536 formats and robotically manipulated with a pin tool (the DHFR F[1,2] bait strains were used except for the KO strains). Each strain was randomly positioned in 6 replicates per plate and two plates per condition were performed, for 12 replicates per strain in total. A border of two rows and two columns of WT strains (BY4741) around the plate was used to remove border effects. Strains were grown on YPD media for two days at 30 °C. They were then replicated on 51 different media that are described in the Supplementary Table 3 and were incubated at 37 °C in a spImager custom platform with images acquired every two hours for four days. The colony sizes from plate pictures were also measured with the R package “Gitter” and the output was manually inspected. Positions with an abnormality in colony circularity were removed. The colony sizes after 74 h of incubation at 37 °C were log2 transformed and used for the analyses. First, the differences between the two plate replicates were corrected to remove plate effects. The median colony size was calculated for each strain per plate. Strains with a difference in their median colony size of more than two between the two plate replicates were removed. Finally, the average of the median colony size was calculated for each strain per condition (growth score).
molecule,measurement,setting,value
B1,Ratio (Deletedscore / WTscore),[1]; bait LSB3,1.383
B2,Ratio (Deletedscore / WTscore),[1]; bait LSB3,1.675
same,Ratio (Deletedscore / WTscore),[1]; bait MYO3,1.004
same,Ratio (Deletedscore / WTscore),[1]; bait MYO5,0.9102
B3,Growth (Fig. S2D),[2]; Bathophenanthroline.0.1uM,10.7779
same,Growth (Fig. S2D),[2]; Bathophenanthroline.10uM,10.6544
same,Growth (Fig. S2D),[2]; Bathophenanthroline.1uM,10.7233
same,Growth (Fig. S2D),[2]; CaCl2.100mM,10.745
same,Growth (Fig. S2D),[2]; CaCl2.250mM,10.6724
same,Growth (Fig. S2D),[2]; CaCl2.500mM,10.224
same,Growth (Fig. S2D),[2]; Caffein.10mM,9.987
same,Growth (Fig. S2D),[2]; Caffein.2mM,10.9881
same,Growth (Fig. S2D),[2]; CdCl2.100uM,9.742
same,Growth (Fig. S2D),[2]; CdCl2.10uM,10.8471
same,Growth (Fig. S2D),[2]; CdCl2.50uM,10.1808
same,Growth (Fig. S2D),[2]; CuSO4.1mM,10.5746
same,Growth (Fig. S2D),[2]; CuSO4.5mM,8.442
same,Growth (Fig. S2D),[2]; Cycloheximide.0.05.uM,11.0561
same,Growth (Fig. S2D),[2]; Cycloheximide.0.2.uM,10.6665
same,Growth (Fig. S2D),[2]; Cycloheximide.0.5.uM,10.4823
same,Growth (Fig. S2D),[2]; DMSO.2.,10.9822
same,Growth (Fig. S2D),[2]; DMSO.6.,9.9755
same,Growth (Fig. S2D),[2]; DMSO.8.,9.381
same,Growth (Fig. S2D),[2]; Ethanol.2.,10.76
same,Growth (Fig. S2D),[2]; Ethanol.6.,10.427
same,Growth (Fig. S2D),[2]; Ethanol.8.,10.4864
same,Growth (Fig. S2D),[2]; Galactose.2.,10.7856
same,Growth (Fig. S2D),[2]; Glycerol.2.,10.3292
same,Growth (Fig. S2D),[2]; Hydroxyurea.25mM,10.7632
same,Growth (Fig. S2D),[2]; Hygromycin.190uM,10.9263
same,Growth (Fig. S2D),[2]; Hygromycin.19uM,10.9545
same,Growth (Fig. S2D),[2]; Hygromycin.95uM,10.9494
same,Growth (Fig. S2D),[2]; MMS.0.004.,10.9625
same,Growth (Fig. S2D),[2]; MMS.0.02.,10.8338
same,Growth (Fig. S2D),[2]; MMS.0.04.,10.264
same,Growth (Fig. S2D),[2]; Menadione.100uM,10.4792
same,Growth (Fig. S2D),[2]; Menadione.200uM,10.398
same,Growth (Fig. S2D),[2]; Menadione.50uM,10.8403
same,Growth (Fig. S2D),[2]; NaCl.0.25M,10.7336
same,Growth (Fig. S2D),[2]; NaCl.1M,10.1964
same,Growth (Fig. S2D),[2]; Nitroquinoline.10uM,10.6457
same,Growth (Fig. S2D),[2]; Nitroquinoline.50uM,10.6448
same,Growth (Fig. S2D),[2]; Nystatin.0.01uM,10.9455
same,Growth (Fig. S2D),[2]; Nystatin.0.1uM,11.0177
same,Growth (Fig. S2D),[2]; Raffinose.2.,10.9059
same,Growth (Fig. S2D),[2]; Rapamycin.10nM,9.962
same,Growth (Fig. S2D),[2]; Rapamycin.50nM,9.216
same,Growth (Fig. S2D),[2]; SC.pH3,10.4509
same,Growth (Fig. S2D),[2]; SC.pH6,10.9947
same,Growth (Fig. S2D),[2]; SDS.0.01.,10.9398
same,Growth (Fig. S2D),[2]; SDS.0.02.,10.9447
same,Growth (Fig. S2D),[2]; SDS.0.05.,10.807
same,Growth (Fig. S2D),[2]; Sorbitol.10mM,10.9819
same,Growth (Fig. S2D),[2]; Sorbitol.1mM,10.9741
same,Growth (Fig. S2D),[2]; Sorbitol.5mM,10.8941
B4,Ratio (Deletedscore / WTscore),[1]; bait ABP1,1.111
same,Ratio (Deletedscore / WTscore),[1]; bait LSB3,1.521
same,Ratio (Deletedscore / WTscore),[1]; bait MYO3,1.308
same,Ratio (Deletedscore / WTscore),[1]; bait MYO5,1.194
same,Ratio (Deletedscore / WTscore),[1]; bait RVS167,1.454
B5,Ratio (Deletedscore / WTscore),[1]; bait LSB3,1.116
B6,Ratio (Deletedscore / WTscore),[1]; bait ABP1,1.339
same,Ratio (Deletedscore / WTscore),[1]; bait LSB3,1.364
same,Ratio (Deletedscore / WTscore),[1]; bait SHO1,1.171

# Reference: paper PMC7954794, “Protein context shapes the specificity of SH3 domain-mediated interactions in vivo” (Nature Communications, 2021)
